Experimental data from patent publication US20230265151A1, “GIP/GLP1 CO-AGONIST COMPOUNDS” (priority 2020, published 2023).
Numbering of substitutions follows the chain as printed.

T1: human glucose-dependent insulinotropic polypeptide (GIP) receptor (human, UniProt P48546 22-466)
T1 sequence (looked up): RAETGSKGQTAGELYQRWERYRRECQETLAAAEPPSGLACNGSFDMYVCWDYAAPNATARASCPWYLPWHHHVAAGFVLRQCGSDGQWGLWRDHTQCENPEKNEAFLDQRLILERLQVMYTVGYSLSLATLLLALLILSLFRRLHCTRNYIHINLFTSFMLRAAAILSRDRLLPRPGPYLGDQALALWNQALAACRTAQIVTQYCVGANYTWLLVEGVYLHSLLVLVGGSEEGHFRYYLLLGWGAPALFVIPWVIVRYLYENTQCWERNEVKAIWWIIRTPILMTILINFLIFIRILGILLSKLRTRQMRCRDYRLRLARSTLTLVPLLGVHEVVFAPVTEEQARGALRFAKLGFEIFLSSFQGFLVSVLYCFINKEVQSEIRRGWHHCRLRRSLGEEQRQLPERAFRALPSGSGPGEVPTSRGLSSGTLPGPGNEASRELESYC

B1: Example 200 (peptide)
peptide: YXEGTXTSDYXIXLDXKAQXEFIXXLIEGGKSSGAPPPS
modifications: Aib2, αMeF(2F)6, Dap11, αMeL13, Orn16, K17(Z), Aib20, D-Glu24, αMeY25, K31(Z), C-terminal NH2; Z = AEEA2-(γ-Glu)-CO-(CH2)12-CO2H
B2: Example 202 (peptide)
peptide: B1 peptide with Y10X
modifications: Aib2, αMeF(2F)6, 4Pal10, Tle11, αMeL13, Orn16, K17(Z), Aib20, D-Glu24, αMeY25, K31(Z), C-terminal NH2; Z = AEEA2-(γ-Glu)-CO-(CH2)12-CO2H
B3: Example 203 (peptide)
peptide: YXEGTXTSDXSIXLDXIAQXEFIKXLIKGGPSSGAPPPS
modifications: Aib2, αMeF(2F)6, 4Pal10, αMeL13, Orn16, Aib20, K24(Z), αMeY25, K28(Z), C-terminal NH2; Z = AEEA2-(γ-Glu)-(4-(4-tert-butylphenyl)butanoyl)
B4: Example 204 (peptide)
peptide: B3 peptide with E21K, K24X
modifications: Aib2, αMeF(2F)6, 4Pal10, αMeL13, Orn16, Aib20, K21(Z), D-Glu24, αMeY25, K28(Z), C-terminal NH2; Z = AEEA2-(γ-Glu)-(4-(4-tert-butylphenyl)butanoyl)
B5: Example 205 (peptide)
peptide: YXEGTXTSDXSIXLDXIAQXKFIXXLIEGGPSSGAPPPSK
modifications: Aib2, αMeF(2F)6, 4Pal10, αMeL13, Orn16, Aib20, K21(Z), D-Glu24, αMeY25, K40(Z), C-terminal NH2; Z = AEEA2-(γ-Glu)-(4-(4-tert-butylphenyl)butanoyl)
B6: Example 207 (peptide)
peptide: B3 peptide with I17K, E21K, K24X, K28E
modifications: Aib2, αMeF(2F)6, 4Pal10, αMeL13, Orn16, K17(Z), Aib20, K21(Z), D-Glu24, αMeY25, C-terminal NH2; Z = AEEA-(γ-Glu)-(4-(4-tert-butylphenyl)butanoyl)
B7: Example 208 (peptide)
peptide: B3 peptide with I17K, K24X
modifications: Aib2, αMeF(2F)6, 4Pal10, αMeL13, Orn16, K17(Z), Aib20, D-Glu24, αMeY25, K28(Z), C-terminal NH2; Z = AEEA-(γ-Glu)-(4-(4-tert-butylphenyl)butanoyl)
B8: Example 209 (peptide)
peptide: B5 peptide with I17K, K21E
modifications: Aib2, αMeF(2F)6, 4Pal10, αMeL13, Orn16, K17(Z), Aib20, D-Glu24, αMeY25, K40(Z), C-terminal NH2; Z = AEEA-(γ-Glu)-(4-(4-tert-butylphenyl)butanoyl)
B9: Example 210 (peptide)
peptide: B3 peptide with I17K, K24X
modifications: Aib2, αMeF(2F)6, 4Pal10, αMeL13, Orn16, K17(Z), Aib20, D-Glu24, αMeY25, K28(Z), C-terminal NH2; Z = AEEA2-CO-(CH2)12-CO2H
B10: Example 211 (peptide)
peptide: B1 peptide with Y10X
modifications: Aib2, αMeF(2F)6, 4Pal10, Ac5c11, αMeL13, Orn16, K17(Z), Aib20, D-Glu24, αMeY25, K31(Z), C-terminal NH2; Z = AEEA2-(γ-Glu)-CO-(CH2)12-CO2H
B11: Example 213 (peptide)
peptide: B1 peptide with Y10X
modifications: Aib2, αMeF(2F)6, 4Pal10, αMeS11, αMeL13, Orn16, K17(Z), Aib20, D-Glu24, αMeY25, K31(Z), C-terminal NH2; Z = AEEA2-(γ-Glu)-CO-(CH2)12-CO2H
B12: Example 214 (peptide)
peptide: B3 peptide with S11X, I17K, K28E
modifications: Aib2, αMeF(2F)6, 4Pal10, αMeS11, αMeL13, Orn16, K17(Z), Aib20, K24(Z), αMeY25, C-terminal NH2; Z = AEEA2-(γ-Glu)-CO-(CH2)12-CO2H
B13: Example 221 (peptide)
peptide: B5 peptide with I17K, K21E
modifications: Aib2, αMeF(2F)6, 4Pal10, αMeL13, Orn16, K17(Z), Aib20, D-Glu24, αMeY25, K40(Z), C-terminal NH2; Z = AEEA2-CO-(CH2)12-CO2H
B14: Example 222 (peptide)
peptide: B3 peptide with E21K, K24X
modifications: Aib2, αMeF(2F)6, 4Pal10, αMeL13, Orn16, Aib20, K21(Z), D-Glu24, αMeY25, K28(Z), C-terminal NH2; Z = AEEA2-CO-(CH2)12-CO2H
B15: Example 224 (peptide)
peptide: B3 peptide with I17K, K24X
modifications: Aib2, αMeF(2F)6, 4Pal10, αMeL13, Orn16, K17(Z), Aib20, D-Glu24, αMeY25, K28(Z), C-terminal NH2; Z = AEEA3-(γ-Glu)-CO-(CH2)12-CO2H
B16: Example 225 (peptide)
peptide: B5 peptide with I17K, K21E
modifications: Aib2, αMeF(2F)6, 4Pal10, αMeL13, Orn16, K17(Z), Aib20, D-Glu24, αMeY25, K40(Z), C-terminal NH2; Z = AEEA3-(γ-Glu)-CO-(CH2)12-CO2H
B17: Example 226 (peptide)
peptide: B3 peptide
modifications: Aib2, αMeF(2F)6, 4Pal10, αMeL13, Orn16, Aib20, K24(Z), αMeY25, K28(Z), C-terminal NH2; Z = AEEA3-(γ-Glu)-CO-(CH2)12-CO2H
B18: Example 227 (peptide)
peptide: B3 peptide with E21K, K24X
modifications: Aib2, αMeF(2F)6, 4Pal10, αMeL13, Orn16, Aib20, K21(Z), D-Glu24, αMeY25, K28(Z), C-terminal NH2; Z = AEEA3-(γ-Glu)-CO-(CH2)12-CO2H
B19: Example 228 (peptide)
peptide: B5 peptide
modifications: Aib2, αMeF(2F)6, 4Pal10, αMeL13, Orn16, Aib20, K21(Z), D-Glu24, αMeY25, K40(Z), C-terminal NH2; Z = AEEA3-(γ-Glu)-CO-(CH2)12-CO2H
B20: Example 249 (peptide)
peptide: B3 peptide with I17K, E21K, K24X, K28E
modifications: Aib2, αMeF(2F)6, 2Nal10, αMeL13, Orn16, K17(Z), Aib20, K21(Z), D-Glu24, αMeY25, C-terminal NH2; Z = AEEA2-(γ-Glu)-CO-(CH2)12-CO2H

Assays:
Experiment in all cases: cell-based or functional assay
human glucagon receptor = human glucagon receptor (human, UniProt P47871 26-477)
[1] = target: human glucagon-like peptide-1 (GLP-1) receptor (human, UniProt P43220 24-463)
[2] = target: T1, human glucose-dependent insulinotropic …

Row | Binder | cAMP EC50 (human glucagon receptor) | cAMP EC50 [1] | cAMP Emax [1] | cAMP EC50 [2] | cAMP Emax [2]
1 | B1 | > 9950 nM | 0.834 nM | 93.7% | 0.0503 nM | 96.3%
2 | B2 | > 9950 nM | 0.944 nM | 92.2% | 0.057 nM | 86%
3 | B3 | > 9950 nM | 0.535 nM | – | 0.0721 nM | –
4 | B4 | > 9950 nM | 0.47 nM | 126% | 0.0304 nM | –
5 | B5 | > 9950 nM | 0.287 nM | – | 0.0264 nM | –
6 | B6 | > 9950 nM | 0.209 nM | – | 0.019 nM | –
7 | B7 | > 9950 nM | 0.238 nM | – | 0.018 nM | –
8 | B8 | > 9950 nM | 0.235 nM | – | 0.0133 nM | –
9 | B9 | > 9950 nM | 0.57 nM | – | 0.02 nM | –
10 | B10 | > 9950 nM | 3.55 nM | 93.1% | 0.0465 nM | 91.6%
11 | B11 | > 9950 nM | 2.14 nM | 94.8% | 0.0275 nM | 92%
12 | B12 | > 9950 nM | 0.618 nM | 93.2% | 0.0351 nM | 93.7%
13 | B13 | > 9950 nM | 1.83 nM | 83% | 0.0279 nM | –
14 | B14 | > 9950 nM | 0.518 nM | – | 0.0195 nM | –
15 | B15 | > 9950 nM | 7.51 nM | 88.4% | 0.0374 nM | –
16 | B16 | > 9950 nM | 9.62 nM | – | 0.0466 nM | –
17 | B17 | > 9950 nM | 0.611 nM | – | 0.0232 nM | –
18 | B18 | > 9950 nM | 1.22 nM | – | 0.0224 nM | –
19 | B19 | > 9950 nM | 1.34 nM | 91.1% | 0.0232 nM | –
20 | B20 | > 9950 nM | 0.3 nM | – | 0.0201 nM | –
